Ki data for 2 substances are collected here from publication PMC3490968.

The target of this assay is papain (UniProt P00784). The assay can be described thus: enzyme inhibition kinetics (fluorogenic substrate, Lineweaver-Burk plot); papain 2 nM, cystatin 40, 60, 80 pM, substrate Z-Phe-Arg-7-amido-4-methylcoumarin 0.3-5 uM; 100 mM sodium phosphate pH 6.3, 10 mM EDTA, 400 mM NaCl, 2 mM dithiothreitol.
Chain of UniProt P00784 (P00784 134-345): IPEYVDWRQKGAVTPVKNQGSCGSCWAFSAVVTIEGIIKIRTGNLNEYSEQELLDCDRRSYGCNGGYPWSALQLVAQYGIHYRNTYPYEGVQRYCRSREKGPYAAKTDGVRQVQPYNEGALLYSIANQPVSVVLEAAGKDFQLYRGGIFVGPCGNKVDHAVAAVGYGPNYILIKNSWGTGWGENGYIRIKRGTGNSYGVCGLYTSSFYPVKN

As a reminder, the Ki is a measure of affinity in units of concentration, obtained from inhibition or displacement. Low readings indicate higher affinity, high ones lower affinity. In turn, “recombinant pineapple cystatin (AcCYS), residue 1-135 (natural protein)” had a Ki of 200 pM.

Take “truncated AcCYS (AcCYS_DL), residue 28-135 (domain or fragment)”: the Ki was found to be 140 pM.
